Data taken from patent US20230039941A1, “ENZYME ENHANCED ROOT UPTAKE OF AGROCHEMICAL ACTIVE COMPOUND” (BASF SE, priority 2019, published 2023).
Positions count from the first letter of the chain named. Marks after values point to notes of the source that are not given here.

B1: CUT-4: Cutinase according to SEQ No. 4, Pseudomonas mendocina (94%), NCBI WP_096825365.1 (protein)
chain: APLPDTPGAPFPSVSNFDRSGPYATTSRSEGPNCRVYRPATLGQNGVRHPIVLWGNGTGTGPTAYSGLLSHWASHGFVVAAAETSNAGTGEQMLACLDYLVQESNRTYGTYVGVLNTGRVGTSGHSQGGGGSIMAGQDERVSVTAPIQPYTIGLGHDSASQRNQQGPMFLMSGGGDTIAFPYLNAQPVYTRANVPVFWGERRYVSHFEPVGDGGAYRGPSTAWFRYHLMEDETARSTFYGRFCGLCTSVLWTEERKDIE
modifications: Pseudomonas sp. SST3; Cutinase 9
B2: CUT-1: Cutinase according to SEQ No. 1, biological source Pseudomonas mendocina (US5545547A) (protein, listed as Pseudomonas mendocina)
chain: APLPDTPGAPFPAVANFDRSGPYTTSSQSEGPSCRIYRPRDLGQGGVRHPVILWGNGTGAGPSTYAGLLSHWASHGFVVAAAETSNAGTGREMLACLDYLVRENDTPYGTYSGKLNTGRVGTSGHSQGGGGSIMAGQDTRVRTTAPIQPYTLGLGHDSASQRRQQGPMFLMSGGGDTIAFPYLNAQPVYRRANVPVFWGERRYVSHFEPVGSGGAYRGPSTAWFRFQLMDDQDARATFYGAQCSLCTSLLWSVERRGL
modifications: Cutinase 1
B3: CUT-2: Cutinase according to SEQ No. 2, biological source Pseudomonas mendocina (PDB 2FX5_A) (protein, listed as Pseudomonas mendocina)
chain: B2 chain with T25V
modifications: Cutinase 2

Assays:
wheat seedlings = assay: Clothianidin uptake in wheat seedlings (cotyledon analysis) after seed treatment with cutinases; format: in vivo, Triticum sp.; details: for Average of clothianidin detected on 15 pairs of wheat cotyledons: wheat seed treatment with clothianidin plus enzyme-containing cell extract; for % Clothianidin uptake in wheat cotyledons: wheat seed treatment, one way ANOVA test (P = 0.002); for percent clothianidin uptake in wheat seedlings, effect of cutinase seed treatment: P=0.002
Method: a. Seed treatment: Formulations were diluted and enzymes were dissolved in HPLC water. Solutions were made and mixed immediately before each treatment. For each treatment, 100 g of spring wheat seeds (Triticum sp.) were placed in a 1-L bowl of a HEGE 11 seed treater. Treatment slurry was applied to spinning seeds in an application volume of 1.5 mL including 2.05 mg of lyophilized enzyme-containing cell extracts and seeds were spun until dry. Directly after treatment, seeds were transferred to paper seed pouches and stored in a cooler filed with ice packs until planting.
b. Plant incubation: Before seed treatment, 24-well plates were filled with RediEarth potting mixture sifted through a 3.35-mm mesh sieve. Tap water was uniformly applied to the soil surface using a conical spray nozzle until just before complete saturation of soil column (˜55 mL/plate). The soil was tamped down to a level of 1 cm below plate surface. One hour after treatment, one seed was placed on the soil surface of each well. RediEarth was sifted directly over the wells and the soil line was levelled to the plate surface. The soil surface was moistened again with ˜22 mL water/plate. Plates were then held in a randomized complete block design in an incubator at 25° C., 50% RH containing two FloraSun (F25T8 Plant Growth) lights at 14L:10D. Replication was 10 plates per treatment.
d. Cotyledon analysis: Fifteen excised pairs of wheat cotyledons were extracted (10× replicates) with acetonitrile solvent (10 mL, containing 1% acetic acid) by homogenization. The homogenate is first centrifuged to bring down the solvent/material sticking to the cap using Beckman Coulter (Allegra X-14R) centrifuge for 3 min at 3000 RPM. The collected homogenate is then treated with anhydrous magnesium sulfate (˜3500 mg), sodium acetate (˜220 mg) and vortexed well (˜30s) before further centrifugation for the same duration as above. The supernatant clear solution is then transferred into appropriate vials for LC/MS analysis without further dilution.
Control samples were prepared by spiking a known amount std clothianidin into 15 pairs of cotyledons (10 replicates) collected from the seedlings of untreated […] seeds and homogenized and processed as above. The recovery of the AI was quantified from the LC/MS data and then used to normalize the results from treated cotyledon sample sets.
(§1) LCMS analyses were performed using Thermo Fisher Scientific Q-Exactive Mass Analyzer with electrospray positive mode of ionization. Thermo Fisher Scientific Surveyor MS Plus Pump and autosampler were used for the chromatographic runs through a column (Sonoma-C18, 2.1×100 mm, 5 u). The gradient started with 98:2 Water/MeOH (containing 4 mM ammonium formate and 0.1% formic acid) and ending with 98:2 MeOH/Water in about 10 min.

[1] = Uptake of the active ingredient in canola seedling cotyledons after seed treatment with or without cutinase; format: in vivo; details: canola, cotyledons (leaf), other: seed treatment (slurry applied to seeds), 20.1 μg/seed; Cotyledon analysis seven days after planting; normalized using mean % Al recovery (90.9%) and mean % coating efficiency; read-out: Mean Al Uptake (ng/mg leaf)
Method: (§2) Canola seeds were treated with formulated product diluted in water by spinning 100 g seed in a 1-liter HEGE bowl while applying treatment slurry. Seeds were spun until dry.
(§3) On the day of planting, 24-well plates (10 mL, nonsterile) were filled with a highly organic plug & seedling mix. Water was uniformly applied to the soil surface using a spray nozzle until just before complete saturation of soil column. Soil was tamped down to a level of 1 cm below plate surface. One treated seed was placed on the soil surface of each well and then covered with potting mixture leveled to the plate surface. The top soil surface was sprayed once more to moisten. Plates were then held in an incubator and top-watered as needed with fertilizer water (NPK 16-4-20-3(Ca)-1(Mg)) via spray nozzle. Seven days after planting, both cotyledons from ten plants were sampled for analysis by clipping the point where cotyledon meets stem. Replication was 10×.
(§4) The seed/excised cotyledons were extracted with acetonitrile solvent (3 mL, containing 1% acetic acid) by homogenization in Teflon tubes using 2010 Geno/Grinder (Spex Sample Prep) for 2 min at 1200 RPM. The homogenate was then mixed with anhydrous sodium sulphate (˜600 mg), sodium acetate (˜100 mg) and vortexed well before centrifugation using Beckman Coulter (Allegra X-14R) centrifuge for 5 min at 3000 RPM. The clear supernatant was then transferred into appropriate vials for LC/MS analysis.
as §1, with “Extractive Orbitrap” for “Q-Exactive”, “μm).” for “u).”

canola seedlings = assay: as above; format: in vivo; details: for Al Uptake (%) / Mean Al Uptake (ng/mg leaf): Cotyledon analysis seven days after planting; for Al Uptake (%): calculated based on spiked control, 22340 ng/replicate; for Mean Al Uptake (ng/mg leaf): normalized using mean % Al recovery (90.9%) and mean % coating efficiency
Method: as §2, §3, §4
as §1, with “Extractive Orbitrap” for “Q-Exactive”, “μm).” for “u).”

Row | Molecule | Average of clothianidin detected on 15 pairs of wheat cotyledons (wheat seedlings) [ng] | % Clothianidin uptake in wheat cotyledons (wheat seedlings) | concentration at 7 days after planting [1] [ng/g] | Al Uptake (%) (canola seedlings) | Mean Al Uptake (ng/mg leaf) (canola seedlings) | percent clothianidin uptake in wheat seedlings, effect of cutinase seed treatment (wheat seedlings) | mean AI uptake (ng/mg leaf) compared with no enzyme control (canola seedlings; canola cotyledon analysis) | percent of AI uptake compared with no enzyme control (canola seedlings; canola cotyledon analysis)
1 | CN/C(=N\[N+](=O)[O-])NCc1cnc(Cl)s1 [clothianidin, reference compound] | 9.4 ± 2.0 | 0.39 ± 0.08^a % | – | – | – | – | – | –
2 | C[n+]1c([O-])c(-c2ccccc2)c(=O)n2c1SC[C@@H]2c1cnc(Cl)s1 [(3R)-3-(2-chlorothiazol-5-yl)-8-methyl-5-oxo-6-phenyl-2,3-dihydrothiazolo[3,2-a]pyrimidin-8-ium-7-olate] | – | – | 2290 | 0.40 | – | – | – | –
3 | B1 | 10.8 ± 2.1 | 0.44 ± 0.09^a % | – | 0.43 | 2.16 | improvement was not significant | – | –
4 | B2 | 12.5 ± 3.2 | 0.59 ± 0.15^b % | – | 0.60 | 3.04 | significantly enhanced | significantly higher than no enzyme control | significantly higher than no enzyme control
5 | B3 | 11.9 ± 3.4 | 0.53 ± 0.15^ab % | – | 0.39 | 1.87 | improvement was not significant | – | –
